Laboratory results published in PMC2661029.
Like-named read-outs stand apart in the source and are kept apart here.

Assays:
[1] = biological target: Fas death domain (UniProt P25445)
[2] = biological target: FADD death domain, His6-tagged (UniProt Q13158); assay: pull-down
[3] = biological target: Fas death domain (UniProt P25445); assay: crystal structure

UniProt Q13158, sequence (Q13158 93-191): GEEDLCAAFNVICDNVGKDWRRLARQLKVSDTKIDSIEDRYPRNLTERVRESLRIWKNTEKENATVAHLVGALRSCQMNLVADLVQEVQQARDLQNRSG

Substance: Fas death domain (from UniProt P25445 230-314) (domain or fragment)
- stoichiometry N [1]: 4
- concentration at which the complex dissociates [2]: 50 µM
- stoichiometry N [3]: 4
